The text below walks through data of patent publication US20230050972A1 (MOMENTA PHARMACEUTICALS, published 2023).

One experiment has as its target T1, recombinant human α11β1 (human, UniProt Q9UKX5 23-1141; P05556 21-728).
T1 construct: Coated in ELISA; ELISA and SPR material treated as one molecule; also called HIS-tagged human α11β1; integrin alpha 11 beta 1
Kind of experiment: ELISA on recombinant human α11β1. How it is done: (§1) 0.25 μg/mL of target antigen (recombinant human or mouse α11β1) was plated in a 96-well plate over night at 4° C. Plates were washed (PBS with 0.1% Tween-20), blocked (PBS with 2% BSA and 0.05% Tween-20) for 1 hour at room temperature and incubated with a range of antibody concentrations for 1 hour at room temperature. Subsequently, plates were washed and incubated with biotinylated anti-rabbit/mouse/human IgG in a 1:1000 dilution buffer and incubated for 1 hour at room temperature. After washing the plates, Streptavidin HRP was added at 1:200 in dilution buffer and incubated for 1 hour at room temperature. Ultra TMB ELISA substrate solution was added and the plates incubated for 5 minutes on a plate shaker. The reaction was stopped by adding stop solution to each well and plates were read at 450 nm.
(An ELISA detects its analyte on a solid surface through an enzyme-linked reagent.)

Another experiment concerns the target T2, recombinant mouse α11β1 (mouse, UniProt P61622 23-1141; P09055 21-728, limits assumed).
T2 construct: also called murine α11β1
Kind of experiment: ELISA on recombinant mouse α11β1. The method, then:
as §1

Experiment [1] deals with T3, in-house generated I domain of α11β1 (human, UniProt Q9UKX5 159-349, limits assumed).
T3 construct: domain: I domain; also called human α11β1 I domain; α11β1 I Domain
T3 sequence (looked up): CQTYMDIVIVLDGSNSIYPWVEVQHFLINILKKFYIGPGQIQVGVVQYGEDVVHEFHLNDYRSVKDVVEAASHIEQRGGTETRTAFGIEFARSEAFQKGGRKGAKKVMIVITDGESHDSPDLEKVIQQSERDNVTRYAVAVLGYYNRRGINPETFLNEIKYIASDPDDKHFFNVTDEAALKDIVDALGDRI
Briefly: binding to isolated I domain.

The target of experiment [2] is T4, α11β1 on human myofibroblasts (MF) (human, UniProt Q9UKX5 23-1188; P05556 21-798).
T4 construct: whole, on cells
Briefly: FACS on human myofibroblasts. The method, then:
Human Pulmonary Fibroblasts (ScienCell) were cultured in complete Fibroblast Growth Medium (ScienCell) until 80% confluent in T-150 flasks. Cells were washed and harvested using Accutase. Cells were seeded into T-150 flasks at 7,500 cells/cm² in complete FGF and cultured for 72 hours. Cells were then washed and starved in serum reduced medium for 24 hours. After starvation, cells were treated with TGFβ-1 (R&D Systems) for 72 hours. Cells were harvested using Accutase and seeded in 96-well conical bottom plates. Cells were blocked with Heat Inactived Fetal Bovine Serum (Gibco) for 30 minutes at 4° C. Cells were then incubated with anti-α11 antibodies at the doses described in each figure for 30 minutes at 4° C. A human anti-α11 antibody (Creative BioLabs) was included as a positive control as well as the appropriate IgG isotype negative controls. Cells were washed twice and incubated with PE conjugated secondary antibodies specific to the IgG class of the anti-α11 antibodies being tested for 30 minutes at 4° C. Cells were washed twice and fixed in 1% PFA for 30 minutes. Cells were acquired on a FACS Verse […]. Data were analyzed by gating on single cells and determining the geometric Mean Fluorescence Intensity (gMFI) in the PE channel for each sample.

T1 sequence (Q9UKX5 23-1141 limits assumed, chain 1 of 2): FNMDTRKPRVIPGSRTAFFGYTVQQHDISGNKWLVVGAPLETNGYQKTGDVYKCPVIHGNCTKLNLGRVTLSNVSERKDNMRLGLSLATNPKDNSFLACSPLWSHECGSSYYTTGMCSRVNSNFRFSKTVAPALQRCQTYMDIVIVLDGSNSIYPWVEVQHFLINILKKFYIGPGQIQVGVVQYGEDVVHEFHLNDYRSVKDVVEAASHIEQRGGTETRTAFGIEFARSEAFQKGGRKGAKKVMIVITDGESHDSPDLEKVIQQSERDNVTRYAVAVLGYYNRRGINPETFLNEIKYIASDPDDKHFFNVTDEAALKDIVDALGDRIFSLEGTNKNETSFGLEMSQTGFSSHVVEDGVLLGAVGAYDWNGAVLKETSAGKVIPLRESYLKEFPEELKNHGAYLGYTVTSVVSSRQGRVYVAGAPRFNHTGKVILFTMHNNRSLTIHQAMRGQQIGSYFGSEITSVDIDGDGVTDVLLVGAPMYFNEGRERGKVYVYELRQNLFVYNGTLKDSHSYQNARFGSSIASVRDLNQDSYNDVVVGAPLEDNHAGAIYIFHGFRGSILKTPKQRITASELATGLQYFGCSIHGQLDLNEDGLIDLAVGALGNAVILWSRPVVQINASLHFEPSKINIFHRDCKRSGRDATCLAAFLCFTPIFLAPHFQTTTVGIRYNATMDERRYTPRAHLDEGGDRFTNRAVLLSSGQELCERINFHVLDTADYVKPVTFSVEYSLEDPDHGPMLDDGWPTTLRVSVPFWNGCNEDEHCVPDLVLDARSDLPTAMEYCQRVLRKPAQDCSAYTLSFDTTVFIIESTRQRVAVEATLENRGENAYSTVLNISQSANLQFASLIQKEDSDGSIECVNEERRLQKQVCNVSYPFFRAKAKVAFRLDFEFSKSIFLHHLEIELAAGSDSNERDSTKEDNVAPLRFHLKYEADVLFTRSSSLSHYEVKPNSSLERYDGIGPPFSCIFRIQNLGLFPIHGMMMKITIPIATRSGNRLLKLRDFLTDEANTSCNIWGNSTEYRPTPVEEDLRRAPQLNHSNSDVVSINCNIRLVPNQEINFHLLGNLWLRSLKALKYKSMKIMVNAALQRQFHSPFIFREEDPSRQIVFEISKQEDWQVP
T1 sequence (P05556 21-728 limits assumed, chain 2 of 2): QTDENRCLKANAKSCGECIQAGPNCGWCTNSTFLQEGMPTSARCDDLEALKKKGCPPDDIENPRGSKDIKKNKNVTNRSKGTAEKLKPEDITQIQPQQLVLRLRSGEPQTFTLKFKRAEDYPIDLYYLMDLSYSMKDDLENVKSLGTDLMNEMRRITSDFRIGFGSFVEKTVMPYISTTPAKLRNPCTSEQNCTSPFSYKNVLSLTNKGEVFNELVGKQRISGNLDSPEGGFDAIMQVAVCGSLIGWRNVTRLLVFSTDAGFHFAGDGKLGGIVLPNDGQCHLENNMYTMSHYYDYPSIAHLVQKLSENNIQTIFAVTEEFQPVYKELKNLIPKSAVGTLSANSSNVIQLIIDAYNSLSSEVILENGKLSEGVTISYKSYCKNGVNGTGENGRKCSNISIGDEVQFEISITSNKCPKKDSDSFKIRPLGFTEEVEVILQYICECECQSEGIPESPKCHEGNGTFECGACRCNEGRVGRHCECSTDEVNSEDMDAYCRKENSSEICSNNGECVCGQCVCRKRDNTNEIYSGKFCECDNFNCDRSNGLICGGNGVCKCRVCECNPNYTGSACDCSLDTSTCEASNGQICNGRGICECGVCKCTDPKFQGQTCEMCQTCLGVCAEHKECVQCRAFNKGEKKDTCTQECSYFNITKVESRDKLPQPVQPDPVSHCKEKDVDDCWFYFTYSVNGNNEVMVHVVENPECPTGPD
T2 sequence (P61622 23-1141 limits assumed, chain 1 of 2): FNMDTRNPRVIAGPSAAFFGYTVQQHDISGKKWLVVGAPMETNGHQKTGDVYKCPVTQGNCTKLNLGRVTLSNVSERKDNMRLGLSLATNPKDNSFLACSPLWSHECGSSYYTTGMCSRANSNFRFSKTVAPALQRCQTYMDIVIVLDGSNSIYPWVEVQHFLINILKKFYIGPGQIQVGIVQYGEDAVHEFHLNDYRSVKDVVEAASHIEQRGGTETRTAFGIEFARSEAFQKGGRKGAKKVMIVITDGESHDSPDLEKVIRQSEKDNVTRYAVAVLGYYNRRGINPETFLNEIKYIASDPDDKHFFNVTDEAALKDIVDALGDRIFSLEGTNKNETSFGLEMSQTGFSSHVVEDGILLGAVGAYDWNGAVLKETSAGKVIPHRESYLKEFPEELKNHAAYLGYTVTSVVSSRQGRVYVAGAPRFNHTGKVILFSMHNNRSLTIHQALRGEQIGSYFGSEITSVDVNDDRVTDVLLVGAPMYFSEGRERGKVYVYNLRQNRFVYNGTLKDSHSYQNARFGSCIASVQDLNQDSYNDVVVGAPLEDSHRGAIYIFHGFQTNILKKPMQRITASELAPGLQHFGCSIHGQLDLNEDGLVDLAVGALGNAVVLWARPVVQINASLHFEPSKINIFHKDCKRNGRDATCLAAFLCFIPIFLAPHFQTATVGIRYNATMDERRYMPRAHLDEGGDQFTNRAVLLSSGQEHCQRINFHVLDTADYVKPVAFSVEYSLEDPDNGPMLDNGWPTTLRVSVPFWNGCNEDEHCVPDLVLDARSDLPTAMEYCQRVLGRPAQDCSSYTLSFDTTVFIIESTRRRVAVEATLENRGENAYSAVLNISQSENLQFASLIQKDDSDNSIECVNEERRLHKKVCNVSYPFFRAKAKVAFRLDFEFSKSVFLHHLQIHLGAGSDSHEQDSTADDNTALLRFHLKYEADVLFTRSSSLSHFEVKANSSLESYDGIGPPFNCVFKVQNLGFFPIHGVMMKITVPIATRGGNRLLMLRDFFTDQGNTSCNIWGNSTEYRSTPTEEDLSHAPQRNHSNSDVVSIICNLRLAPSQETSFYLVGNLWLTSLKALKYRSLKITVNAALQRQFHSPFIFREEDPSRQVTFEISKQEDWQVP
T2 sequence (P09055 21-728 limits assumed, chain 2 of 2): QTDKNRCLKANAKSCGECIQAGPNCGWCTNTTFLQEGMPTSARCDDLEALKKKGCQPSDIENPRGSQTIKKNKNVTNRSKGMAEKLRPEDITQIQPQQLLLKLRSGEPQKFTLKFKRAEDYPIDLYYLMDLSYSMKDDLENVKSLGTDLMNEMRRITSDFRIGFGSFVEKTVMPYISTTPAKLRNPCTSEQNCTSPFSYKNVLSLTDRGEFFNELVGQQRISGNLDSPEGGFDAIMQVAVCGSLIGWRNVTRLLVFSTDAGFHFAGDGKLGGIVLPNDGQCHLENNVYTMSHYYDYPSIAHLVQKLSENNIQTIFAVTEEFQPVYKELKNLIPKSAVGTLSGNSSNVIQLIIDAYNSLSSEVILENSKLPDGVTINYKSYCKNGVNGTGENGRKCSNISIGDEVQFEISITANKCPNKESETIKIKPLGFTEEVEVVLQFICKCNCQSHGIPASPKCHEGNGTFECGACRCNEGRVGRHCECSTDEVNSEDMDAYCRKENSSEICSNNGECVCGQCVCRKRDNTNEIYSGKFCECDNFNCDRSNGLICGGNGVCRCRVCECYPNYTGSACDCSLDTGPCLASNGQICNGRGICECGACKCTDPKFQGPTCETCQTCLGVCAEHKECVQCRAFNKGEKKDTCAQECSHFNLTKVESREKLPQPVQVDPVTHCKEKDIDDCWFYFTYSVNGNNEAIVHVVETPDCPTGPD

B1: 6-M8 (antibody, V domains shown)
VH: QVQLQQPGAELVMPGASVKLSCKASGYTFTNYWMHWVKQRPGQGLEWIGEIDPSDSYTNYNQKFKGKATLTVDKSSSTAYMQLSSLTSEDSAVYYCTRQGSTYAWGQGTSVTVSS
VL: DIVMTQAAFSNPVTLGTSASISCRSSKSLLHSNGITYLYWYLQKPGQSPQLLIYQMSNLASGVPDRFSSSGSGTDFTLRISRVEAEDVGVYYCAQNLELPPTFGGGTKLEIK
notes: mouse hybridoma IgG
On to B1, for which the binding result is given as “binds” in the experiment with recombinant human α11β1, “no binding” with recombinant mouse α11β1 and “no binding” in experiment [1].

B2: 10-L15 (antibody, V domains shown)
VH: QVQLQQSGPELVRPGASVKMSCKASGYTFTSYWMHWVKQRPGQGLEWIGMIDPSNSETWLNQKFKDKATLNVDKSSNTAYMQLSSLTSEDSAVYYCARYDGYYDYWGQGTTLTVSS
VL: NIVLTQSPASLAVSLGQRATISCRASESVDSYGNSFMHWYQQKPGQPPKLLIYLASNVESGVPARFSGSGSRTDFTLTIDPVEADDAATYYCQQNNEDPWTFGGGTKLEIK
notes: mouse hybridoma IgG
For B2, the binding result with recombinant human α11β1 and with recombinant mouse α11β1 was “binds” throughout.

B3: 6-B21 (antibody, V domains shown)
VH: EVQLQQSGPELVKPGASVKISCKASGYTFTDYYMNWVKQSHGKSLEWIGDINPHNGGTSFIQKFKGKATLTVDKSSSTAYMELRSLTSEDSAVYYCAPLGRKEGFAYWGQGTLVTVSA
VL: DTVLTQSPASLVVSLGQRATISCRASKSVSTSGYSYMHWYQQKPGQPPKLLIYLASNLESGVPARFSGSGSGTAFTLNIHPVEEEDAATYYCQHSRELPYTFGGGTKLEIK
notes: mouse hybridoma IgG
B3: the binding result in the experiment with recombinant human α11β1 was “binds”; with recombinant mouse α11β1 it was “binds”; in experiment [1] it was “no binding”.

B4: 3-G5 (antibody, V domains shown)
VH: QVQLQQSGAELARPGASVKLSCKASGYTFTSYGISWVKQRTGQGLEWIGEIFPRSSNTYYNEKFKGKATLTADKSSSTVYMEFRSLTSEDSAVYFCAREGGLAWFAYWGQGTLVTVSA
VL: DVVMTQTPLTLSVTIGQPASISCKSSQSLLYTNGNTYLNWLLQRPGQSPKRLIYLVSKLDSGIPDRFSGSGSGTDFTLRISRVEAEDLGVYYCLQSTHFPFTFGSGTKLEIK
notes: mouse hybridoma IgG
Regarding B4, the binding result in the experiment with recombinant human α11β1 was “binds”; with recombinant mouse α11β1, “binds”; in experiment [1], “no binding”.

B5: 8H8E9 (antibody, V domains shown)
VH: QVQLKESGPGLVQPSQTLSLTCTVSGFSLTSNSVSWVRQAPGKGLEWMGAIWSGGSTDYNSALKSRLSISRDTSKSQVFLKMNSLQTEDTAIYFCTRSHWEPFDYWGQGVMVTVSS
VL: DIVMTQSPFSLAVSEGEMVTINCKSSQGLLSSGNQKNYLAWYQQRPGQSPKLLIYYASTRQSGVPDRFIGGGSGTDFTLTISDVQAEDLADYYCLQHYSYPPTFGSGTKLEIK
notes: rat hybridoma mAb
With B5, the binding result in the experiment with recombinant human α11β1 is “binds”; with recombinant mouse α11β1, “no binding”.

B6: 6E5C11 (antibody, V domains shown)
VH: QVQLRESGPGLVQPSQTLSLTCTVSGFSLTSNSVTWVRQPPGKGLEWMGAIWSDGSTDYNSTLKSRLSISRDTSKSQVFLKMSSLQTEDTAIYFCTRSHWEPFDYWGQGVMVTVSS
VL: DIVMTQSPLSLAVSEGETVTMNCKSSQSLFSSGNQKNYLAWYQQKPGQSPKLLIYYASTRQSGVPDRFIGSGSGTDFTLTISDVQTEDLADYYCLQHYNYPPTFGSGTKLEIK
notes: rat hybridoma mAb
As to B6, the binding result is “binds” with recombinant human α11β1 and “no binding” with recombinant mouse α11β1.

B7: 9-B11 (antibody, V domains shown)
VH: QVQLQQPGAELVRPGTSVKLSCKASGYTFTSYWMHWVQQRPGQGLEWIGVIDPSDSYTNYNQKFKGKATLTVDTSSSSAYMQLSSLTSEDSAVYYCARDDVAMDYWGQGTSVTVSS
VL: DIVVTQSPASLAVSLGQRATISCRASESVDSYGNSFIHWYQQKPGQPPKLLIYRASNLKSGIPARFSGSGSRTDFTLTINPVEADDVATYYCQQSNEDPYTFGGGTKLEIK
notes: mouse hybridoma IgG
For B7, the results for the binding result (with recombinant human α11β1; with recombinant mouse α11β1; in experiment [2]) were “binds”, “no binding” and “binds”, respectively.

B8: 2-A3 (antibody, V domains shown)
VH: EVQLQQSGPELVKPGASVKMSCKASGYTFTDYYMMWVKQSHGKSLEWIGDINPYNGGSSYNPKFKGRATLTVDKSSSTAYMQLNSLTSEDSAVYYCARGTYWGQGTLVTVSA
VL: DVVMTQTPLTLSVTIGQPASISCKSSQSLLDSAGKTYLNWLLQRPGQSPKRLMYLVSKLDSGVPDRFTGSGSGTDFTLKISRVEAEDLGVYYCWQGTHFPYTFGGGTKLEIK
notes: mouse hybridoma IgG
Turning to B8, the binding result is on record as “binds” in the experiment with recombinant human α11β1, “binds” in the experiment with recombinant mouse α11β1 and “no binding” in experiment [1].

B9: 6-A15 (antibody, V domains shown)
VH: EVQLQQSGPELVKPGASVKMSCKASGYTITDYYMMWLKQSHGKSLEWIGDINPYTGGTSYNQKFKGKATLTVDKSSSTAYLQLHSLTSEDSAVYYCARGAYWGQGTTLTVSS
VL: not shown
notes: mouse hybridoma IgG
For B9, the binding result with recombinant human α11β1 is on record as “binds”; with recombinant mouse α11β1 it was “binds”; in experiment [1] it was “no binding”.

B10: 18E10F10 (antibody, V domains shown)
VH: EVQLVESGGGLVQPGRSLKLSCAASRFTFSDYNMAWVRQAPKKGLEWVATIYHDDSGSYYRDSVKGRFTISRNNAKSTLYLQMDSLRSEDMATYYCARHNNGFDYWGQGVMVTVAS
VL: DVVMTQTPVSLPVRLGGQASISCRSSQSLVHSNGNTYLHWYLQKPGQSPQLLINRVSNRFSGVPDRFSGSGSGTDFTLKINRVEPEDLGDYYCLQSTHFPLTFGSGTKLETK
notes: rat hybridoma mAb
B10: the binding result is given as “binds” with recombinant human α11β1, “no binding” in the experiment with recombinant mouse α11β1 and “no binding” in experiment [1].

B11: 10-F23 (antibody, V domains shown)
VH: QVTLKESGPGILQPSQTLSLTCSFSGFSLSTFAMGVGWIRQPSGKGLEWLAHIWWDDDKYYNPALKSRLTISKDTSKNHVFLKIANVDTADTATYYCARMPLTFYFDYWGQGTTLTVSS
VL: DVLLTQTPLSLPVSLGDQASISCRSSQSIVHSNGHTYLEWYLQKPGQSPKLLIYKVSNRFSGVPDRFSGSGSGTDFTLKISRVEAEDLGVYYCFQGSHVPFTFGGGTKLEIK
notes: mouse hybridoma IgG
As to B11, the binding result (with recombinant human α11β1; with recombinant mouse α11β1; in experiment [2]) was “binds” each time.

B12: 6-A12 (antibody, V domains shown)
VH: QVTLKESGPGILQPSQTLSLTCSFSGFSLRTFAMGVGWIRQPSGKGLEWLAHIWWDDDKYYNPALKSRLTISKDTSKNQVFLKIANVDTADTATYYCARMPLTFYFDYWGQGTTLTVSS
VL: DVLMTQTPLSLPVSLGDQASISCRSSQSIVHSNGNTYLEWYLQKPGQSPKLLIYKVSTRFSGVPDRFSGSGSGTDFTLKISRVEAEDLGVYYCFQGSHVPFTFGGGTKLEIK
notes: mouse hybridoma IgG
In the case of B12, the binding result (in the experiment with recombinant human α11β1; with recombinant mouse α11β1; in experiment [2]) was “binds” throughout.

B13: 6-O12 (antibody, V domains shown)
VH: EVKLEESGGGLVQPGGSMKLSCAASGFTFSDAWMDWVRQSPEAGLEWVAEIRNKAHNPATYYAESVKGRFTISRDDSKSSVYLQMNSLRAEDTGIYYCTLVAPDAMDYWGQGTSVTVSS
VL: DIVMSLSPSSLAVSVGEKVTMSCKSSQSLLYSRNQKNYLAWYQQKPGQSPKLLIYWASTRASGVPDRFTGSGSGTDFTLTISSVKAEDLAVYYCQQYYSYPYTFGGGTKLEIK
notes: mouse hybridoma IgG
Take B13: the binding result with recombinant human α11β1 was “binds”; with recombinant mouse α11β1 it was “no binding”; in experiment [1], “no binding”.

B14: 7-O8 (antibody, V domains shown)
VH: EVQLQQSGPELVKPGASVKMSCKASGYTFTDYYIHWVKQKPGQGLEYIGEIYPGSGNTYYNGKFRGKATLTADKSSSTAYMQLSSLTSEDSAVYFCGSGYFDYWGQGTTLTVSS
VL: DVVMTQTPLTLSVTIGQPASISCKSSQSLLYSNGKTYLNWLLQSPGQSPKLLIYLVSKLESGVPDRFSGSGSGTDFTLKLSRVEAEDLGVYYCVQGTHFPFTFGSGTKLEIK
notes: mouse hybridoma IgG
For the molecule B14, the binding result (in the experiment with recombinant human α11β1; in the experiment with recombinant mouse α11β1; in experiment [2]) was “binds” each time.

B15: 6-P20 (antibody, V domains shown)
VH: EVQLQQSGPELVKPGASVKISCKASGYTFTDYYMNWVKQSHGRSLELIGDINPNNGGSNFNQKFRGKATLTVDKSSSTAYMELRSLTSEDSAIYYCARMGYWGQGTLVTVSA
VL: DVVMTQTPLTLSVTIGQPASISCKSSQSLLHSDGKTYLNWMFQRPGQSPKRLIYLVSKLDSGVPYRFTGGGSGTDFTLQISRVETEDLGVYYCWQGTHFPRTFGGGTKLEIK
notes: mouse hybridoma IgG
As to B15, the values for the binding result (with recombinant human α11β1; with recombinant mouse α11β1; in experiment [1]) were “binds”, “no binding” and “no binding”, respectively.
